Results as given in publication doi:10.1101/2025.03.18.644018v1.

What was measured:
purified protein [1] = substrate: O=C(O)C[C@H](O)C(=O)O; experiment: purified protein; conditions: equimolar mixture, forward, saturating NAD, MnCl2, pH 6.5, 30°C
purified protein [2] = substrate: CC(=O)C(=O)O; experiment: purified protein; format: biochemical, Glycine max; conditions: reverse reaction, NaHCO3, NADPH, MgCl2, pH 6.5, 30°C

Row | Protein | K0.5 (purified protein [1]) | kcat (purified protein [1]) | K0.5 (purified protein [2]) | kcat (purified protein [2])
1 | NAD-ME1 + NAD-ME2.3 (Glycine max) (protein) chain 1: PSIVHKRSLDILHDPWFNKGTAFSMTERDRLDLRGLLPPNVMSPDLQIERFMVDLKRLEVQARDGPSDPNALAKWRILNRLHDRNETMYYKVLIAKIEEYAPIVYTPTVGLVCQNYSGLFRRPRGMYFSAEDRGEMMSMVYNWPAEQVDMIVVTDGSRILGLGDLGVQGIGIAIGKLDLYVAAAGINPQRVLPVMIDVGTNNEKLLEDPLYLGLQQHRLDGDDYLAVVDEFMEAVFTRWPNVIVQFEDFQSKWAFKLLQRYRNTYRMFNDDVQGTAGVAIAGLLGAVRAQGRPLIDFPKQKIVVAGAGSAGIGVLNAARKTMARMLGNNEVAFESAKSQFWVVDAQGLITEGRENIDPDALPFARNLKEMDRQGLREGASLVEVVKQVKPDVLLGLSAVGGLFSKEVLEALKGSTSTRPAIFAMSNPTKNAECTAEEAFSILGDNIIFASGSPFSNVDLGNGHIGHCNQGNNMYLFPGIGLGTLLSGARIVSDGMLQAAAERLATYMSEEEVLKGIIFPSTSRIRDITKQVATAVIKEAVEEDLAEGYHGMDARELQKLSEDEIAEYVQNNMWSPEYPTLVYKKE chain 2: CIVHKRGADILHDPWFNKDTGFPLTERDRLGLRGLLPPRVISFEQQYDRFMNSFRSLENNTQGQPDKVVSLAKWRILNRLHDRNETLYYRVLIDNIKEFAPIIYTPTVGLVCQNYSGLFRRPRGMYFSAKDKGEMMSMIYNWPAHEVDMIVLTDGSRILGLGDLGVQGIGIPIGKLDVYVAAAGINPQRILPVMLDVGTNNQKLLEDRLYLGLRQPRLEGEEYLSIVDEFMEAVHARWPKAIVQFEDFQMKWAFETLKRYQKRFCMFNDDIQGTAGVALAGILGTVRAQGRPLTDFVNQKIVVVGAGSAGLGVLKMAIQTVAKISGCSELAAKSQFYLIDKDGLVTTERNSLDPAAAPFAKNPRDIEGLTEGASIIEVVKKIRPHVLLGLSGVGGIFNEEVLKAMRESVSTKPAIFAMSNPTMNAECTSIDAFKHAGENIVFASGSPFENVDLGNGKVGHVNQANNMYLFPGIGLGTLLSGAHLITDGMLQAASECLASYMAEEDILKGILYPSVDSIRDVTAEVGAAVLRAAVEEELAEGHGDVGPKELSHMSKDEAVEYVRSNMWYPVYSPLVHEK | 0.2 ± 0.1 mM | 338.3 ± 15.8 s⁻¹ |  | 
2 | NAD-ME1 + NAD-ME2.4 (Glycine max) (protein) chain 1: PSIVHKRSLDILHDPWFNKGTAFSMTERDRLDLRGLLPPNVMSPDLQIERFMVDLKRLEVQARDGPSDPNALAKWRILNRLHDRNETMYYKVLIAKIEEYAPIVYTPTVGLVCQNYSGLFRRPRGMYFSAEDRGEMMSMVYNWPAEQVDMIVVTDGSRILGLGDLGVQGIGIAIGKLDLYVAAAGINPQRVLPVMIDVGTNNEKLLEDPLYLGLQQHRLDGDDYLAVVDEFMEAVFTRWPNVIVQFEDFQSKWAFKLLQRYRNTYRMFNDDVQGTAGVAIAGLLGAVRAQGRPLIDFPKQKIVVAGAGSAGIGVLNAARKTMARMLGNNEVAFESAKSQFWVVDAQGLITEGRENIDPDALPFARNLKEMDRQGLREGASLVEVVKQVKPDVLLGLSAVGGLFSKEVLEALKGSTSTRPAIFAMSNPTKNAECTAEEAFSILGDNIIFASGSPFSNVDLGNGHIGHCNQGNNMYLFPGIGLGTLLSGARIVSDGMLQAAAERLATYMSEEEVLKGIIFPSTSRIRDITKQVATAVIKEAVEEDLAEGYHGMDARELQKLSEDEIAEYVQNNMWSPEYPTLVYKKE chain 2: CIVHKRGADILHDPWFNKDTGFPLTERDRLGLRGLLPPRVISFEQQYDRFMNSFRSLENNTQGQPDKVVSLAKWRILNRLHDRNETLYYRVLIDNIKEFAPIIYTPTVGLVCQNYSGLFRRPRGMYFSAKDKGEMMSMIYNWPAHEVDMIVLTDGSRILGLGDLGVQGIGIPIGKLDVYVAAAGINPQRILPVMLDVGTNNQKLLEDRLYLGLRQPRLEGEEYLSIIDEFMEAVHARWPKAIVQFEDFQMKWAFETLKRYQKKFCMFNDDIQGTAGVALAGLLGTVRAQGRPLTDFVNQKIVVVGAGSAGLGVLKMAIQAVAKISGCSELAAKSQFYLIDKDGLVTTERNNLDPAAAPFAKNPRDIEGLTEGASIIEVVKKIRPHVLLGLSGVGGIFNEEVLKAMRESVSTKPAIFAMSNPTMNAECTAIDAFKHAGENMVFASGSPFENVDLGNGIVGHVNQANNMYLFPGIGLGTLLSGAHLITDGMLQAAAECLASYMAEEDILKGILYPSVDSIRDVTAEVGAAVLRAAVEEELAEGNGDVGPKELSHMSKDETVEYVRSNMWYPVYSPLVHEK | 0.6 ± 0.2 mM | 393.6 ± 63.8 s⁻¹ |  | 
3 | NADP-ME1.1 (Glycine max) (protein) SMTPSSSSSSRSGDRNGSVVMETPLKELKKESTVADVDDNAISAGGPQDVYGEDRATEDHFVTPWSVSVASGYTLLRDPHFNKGLAFTEDERDAHYLRGLLPPSVIPQETQVKKMIQHVRQYQVPLQKYMAMMDLQERNERLFYKLLIDHVEELLPVVYTPTVGEACQKYGSIFMHPQGLYISLKEKGKIREVLRNWPEKNIQVIVVTDGERILGLGDLGCQGMGIPVGKLSLYTALGGVRPSACLPITIDVGTNNEKLLNDELYIGLKQRRATGQEYAELMHEFMTAVKQTYGEKVLIQFEDFANHNAFNLLEKYRSTHLVFNDDIQGTASVVLAGLVASLKLVGGNLADHRFLFLGAGEAGTGIAELIALETSKQTNAPLEEVRKNIWLVDSKGLIVSSRKDSLQHFKKPWAHEHEPVKNLLDAVNKIKPTVLIGTSGQGRTFTKEVIEAMASINKRPIILSLSNPTSQSECTAEEAYKWSQGRAIFASGSPFPPVEYEGKVFVPGQANNAYIFPGFGLGLIMSGTIRVHDDLLLAASEALAAQVSQENFDKGLIYPPFTNIRKISAHIAANVAAKAYELGLATRLPQPKDLVKFAESCMYTPAYRSYR |  |  | 5.1 ± 0.5 mM | 202.4 ± 6.9 s⁻¹
